Where a chain is given by its changes, count along the chain named.

The target of test [1] is Human B7-H3-his (human) (UniProt Q5ZPR3). In words: ELISA, human B7-H3 at protein level (second run). A general note: In an ELISA, binding on a coated surface is turned into a signal by an enzyme label.
Test [2] shares this target. Briefly: ELISA, antigen coated at 2 µg/mL.

B1: IL-P5-B01 (antibody, V domains shown)
VH: EVQLQESGPSLVKPSQTLSLTCSVTGDSITSGSWNWIRKFPGNKLEYMGYISYSGSIYYNPSLKSRISITRDTSKNQYYLQLNSVTTEDTATYYCARGNPAWFAYWGQGTLVTVSA
VL: DIVMTQSQKFMSTSVGDRVSVTCKASQNVGTNVAWYQQKPGQSPKALIYSASYRYSGVPDRFTGSGSGTDFTLTISNVQSEDLAEYFCQQYNSYPYTFGGGTKLEIK
In general, EC50 refers to the midpoint of the concentration-response curve. For the molecule B1, the EC50 with Human B7-H3-his (human) [1] is 0.248 µg/mL; with Human B7-H3-his (human) [2], 0.137 µg/mL.

B2: IL-P6-D06 (antibody, V domains shown)
VH: QVQLQQSGPELVRPGVSVKISCKGSGYTFTDYAIHWVKQSHAKSLEWIGVINTYSGNTNYNQKFKGRATMTVDKSSSTAYMELARLTSEDSAIYFCARGVTYGSGYPYWYFDVWGAGTTVTVSS
VL: B1 VL
With B2, the results for the EC50 in the test with Human B7-H3-his (human) [1] and with Human B7-H3-his (human) [2] were 0.233 µg/mL and 0.174 µg/mL, respectively.

B3: IL-P7-A06 (antibody, V domains shown)
VH: QVQLQQSGPEVVRPGVSVKISCKGSGYTFTDYAMHWVKQSHAKSLEWIGIINTYNGNTNYNQKFKGKATMTVDKSSSTAYMEFARLTSEDSAIYYCARSRGPWDRYFDVWGAGTTVTVSS
VL: B1 VL with N32A, A46L, Y53N, S56T, V78M, E85D, N92S, Y96F, G100S
Turning to B3, the results for the EC50 in the test with Human B7-H3-his (human) [1] and with Human B7-H3-his (human) [2] were 0.172 µg/mL and 0.195 µg/mL, respectively.

B4: IL-P7-C05 (antibody, V domains shown)
VH: EVQLVESGGDLVQPGGSLKLSCAASGFTFSSYGMSWVRQTPDKRLELVATINSNGGTTYYPDSVKGRFTISRDNAKHTLYLQMSSLKSEDTAMYYCTRNEEFRRGLAYWGQGTLVTVSA
VL: DIQMIQSPASLSVSVGETVTITCRASENIYSNLAWYQQKQGKSPQLLVYAATNLADGVPSRFSGSGSGTQYSLKINSLQSEDFGSYYCQHFWGTPPWTFGGGTKLEIK
For the molecule B4, the EC50 in the test with Human B7-H3-his (human) [1] is 0.044 µg/mL; with Human B7-H3-his (human) [2] it was 0.0788 µg/mL.

B5: IL-P7-C05-H1L1 (antibody, V domains shown)
VH: B4 VH with D10G, K19R, T40A, D42G, R44G, K87R, S88A, M93V, A119S
VL: DIQMTQSPSSLSASVGDRVTITCRASENIYSNLAWYQQKPGKAPKLLVYAATNLADGVPSRFSGSGSGTDYTLTISSLQPEDFATYYCQHFWGTPPWTFGQGTKLEIK
B5 registered an EC50 with Human B7-H3-his (human) [1] of 0.053 µg/mL.

B6: IL-P6-C08 (antibody, V domains shown)
VH: EVKLVESGGDLVKPGGSLKLSCAASGFTFSSYGMSWVRQTSDKRLEWVATISGGGRYTYYPDSVKGRFTISRDSSKNTLYLQMSSLKSEDTAMYYCVRHYDGYLDYWGLGTTLTVSS
VL: DIQMIQSPASLSASVGETVTITCRASENIYSYLAWYQQKQGKSPQLLVYNAKTLAEGVPSRFSGSGSGTQFSLKINSLQPEDFGSYYCQHHYGTPPYTFGGGTKLEIK
As to B6, the EC50 with Human B7-H3-his (human) [1] stood at 0.088 µg/mL; in the test with Human B7-H3-his (human) [2] it was 0.0424 µg/mL.

B7: IL-P5-C06-H2L2 (antibody, V domains shown)
VH: QVQLVQSGAEVKKPGASVKVSCKGSGYTFTDYAIHWGRQAPGQGLEWIGIINTYNGNSNYAQKFQGRATMTRDTSTSTAYMELSRLRSEDTAVYYCARNYGSSFNWYFDVWGQGTTVTVSS
VL: DIQLTQSPSSLSASVGDRITITCRASSSISSNYLHWYQQKPGKAPKLLIYSTSNLASGVPSRFSGSGSGTDFTLTISSVQPEDFATYYCQQYSGYPLTFGQGTKLELK
B7 returned an EC50 with Human B7-H3-his (human) [1] of 0.147 µg/mL.

B8: IL-P5-C06-H2L4 (antibody, V domains shown)
VH: B7 VH
VL: B7 VL with L4M, I19V, A56Q, V79L
Molecule B8 had an EC50 with Human B7-H3-his (human) [1] of 0.223 µg/mL.

B9: IL-P5-C06-H2L3 (antibody, V domains shown)
VH: B7 VH
VL: B7 VL with I19V, V79L
With B9, in the test with Human B7-H3-his (human) [1], the EC50 came out at 0.151 µg/mL.

B10: IL-P5-C06-H1L1 (antibody, V domains shown)
VH: B7 VH with G37A, R72V, T74K
VL: B7 VL with L11M, A44S, F72Y
In the test with Human B7-H3-his (human) [1], B10 registered an EC50 of 0.206 µg/mL. The EC50 values of the last two molecules are within 1.5-fold of each other.

B11: IL-P5-C06-H3L3 (antibody, V domains shown)
VH: B7 VH with G24A, I48M, A68V
VL: B7 VL with I19V, V79L
For B11, the EC50 with Human B7-H3-his (human) [1] was found to be 0.151 µg/mL.

B12: IL-P5-C06-H3L4 (antibody, V domains shown)
VH: B7 VH with G24A, I48M, A68V
VL: B7 VL with L4M, I19V, A56Q, V79L
For the molecule B12, the EC50 with Human B7-H3-his (human) [1] turned out to be 0.156 µg/mL.

B13: IL-P5-C06-H1L3 (antibody, V domains shown)
VH: B7 VH with G37A, R72V, T74K
VL: B7 VL with I19V, V79L
B13 had an EC50 in the test with Human B7-H3-his (human) [1] of 0.164 µg/mL.

B14: IL-P5-C06-H1L4 (antibody, V domains shown)
VH: B7 VH with G37A, R72V, T74K
VL: B7 VL with L4M, I19V, A56Q, V79L
For B14, the EC50 in the test with Human B7-H3-his (human) [1] amounted to 0.237 µg/mL.

B15: IL-P7-C05-H4L3 (antibody, V domains shown)
VH: EVQLVESGGGLVQPGGSLRLSCAASGFTFSSYAMSWVRQAPGKGLELVAAINSNGGSTYYADSVKGRFTISRDNAKNTLYLQMSSLRAEDTAVYYCTRNEEFRRGLAYWGQGTLVTVSS
VL: B5 VL with V48I, T52S, A55Q, D56S
Take B15: in the test with Human B7-H3-his (human) [1], the EC50 was 0.0395 µg/mL. Compared with the last molecule, the EC50 is about 6-fold lower.

B16: IL-P7-C05-H2L2 (antibody, V domains shown)
VH: B15 VH with A33G, A50T, S57T
VL: B5 VL with A55Q, D56S
The molecule B16 returned an EC50 with Human B7-H3-his (human) [1] of 0.051 µg/mL. This EC50 and that of the molecule before are within 1.5-fold of each other.

B17: IL-P7-C05-H3L3 (antibody, V domains shown)
VH: B15 VH with A33G
VL: B5 VL with V48I, T52S, A55Q, D56S
Turning to B17, in the test with Human B7-H3-his (human) [1], the EC50 amounted to 0.071 µg/mL.

B18: IL-P7-C05-H3L1 (antibody, V domains shown)
VH: B15 VH with A33G
VL: B5 VL
In turn, B18 returned an EC50 with Human B7-H3-his (human) [1] of 0.026 µg/mL. Against the preceding molecule, the EC50 is about 2.7-fold lower.

B19: IL-P7-C05-H4L1 (antibody, V domains shown)
VH: B15 VH
VL: B5 VL
Molecule B19 registered an EC50 with Human B7-H3-his (human) [1] of 0.035 µg/mL.

B20: IL-P7-C05-H2L1 (antibody, V domains shown)
VH: B15 VH with A33G, A50T, S57T
VL: B5 VL
For B20, the EC50 with Human B7-H3-his (human) [1] turned out to be 0.111 µg/mL. Against the preceding molecule, the EC50 is about 3.2-fold higher.

B21: IL-P6-C11 (antibody, V domains shown)
VH: EVQLQQSGPELVKPGASVRISCKTSGYTFTDYVIHWVKQNHGGSLEWIGGINRDSGGTTYNQKFQDKVTLTVDKSSNTAYMELRSLTSEDSAVYYCTKWKFPWYFDVWGAGTTVTVSS
VL: DIELTQSPAIMSASPGEKVTMTCSASSSISYMHWYQQKPGTSPKRWIYDTSKLASGVPARFSGSGSGTSYSLTISRVEAEDAATYYCQQWSSNPLTFGSGTKLEIK
For the molecule B21, the EC50 in the test with Human B7-H3-his (human) [1] was found to be 0.182 µg/mL; with Human B7-H3-his (human) [2], 0.23 µg/mL.

B22: IL-P6-B07 (antibody, V domains shown)
VH: B21 VH with D31E
VL: B21 VL with E3V, I29V, P39S, R76S, V77M, S99A, I105L
Regarding B22, the EC50 stood at 0.194 µg/mL with Human B7-H3-his (human) [1] and 0.132 µg/mL with Human B7-H3-his (human) [2].

B23: IL-P5-C06 (antibody, V domains shown)
VH: QVQLQQSGPELVRPGVSVKISCKGSGYTFTDYAIHWAKQGHAKSLEWIGIINTYNGNSNYNQNFKGKATMTVDKSSSTAYMELTRLTSEDSAIYYCARNYGSSFNWYFDVWGQGTTLTVSS
VL: DIVLTQSPTTMAASPGEKITITCSASSSISSNYLHWYQQKPGFSPKLLIYSTSNLASGVPARFSGSGSGTSYSLTISSVEAEDAATYYCQQYSGYPLTFGAGTKLELK
With B23, the results for the EC50 in the test with Human B7-H3-his (human) [1] and in the test with Human B7-H3-his (human) [2] were 0.302 µg/mL and 0.177 µg/mL, respectively.
